From article PMC10827179

Assays:
[1] = target: S. mutans CLC^F F-/H+ antiporter encoded by ORF 1289 (SMU.1289) (Streptococcus mutans UA159); test: cross-linking
[2] = target: S. mutans CLC^F homologue encoded by ORF 1290 (SMU.1290) (Streptococcus mutans UA159); test: cross-linking

| Substance | stoichiometry N [1] | stoichiometry N [2] |
| --- | --- | --- |
| S. mutans CLC^F F-/H+ antiporter encoded by ORF 1289 (SMU.1289) (natural protein) | 2 |  |
| S. mutans CLC^F homologue encoded by ORF 1290 (SMU.1290) (natural protein) |  | 2 |
